Experimental data from paper PMC4655416, “The activity of protein phosphatase 5 towards native clients is modulated by the middle- and C-terminal domains of Hsp90” (Scientific Reports, 2015).
Values joined by “and” are separate entries in the source; they are usually repeats but may differ in a detail not shown here. Identical values can stand only once.

Tests used:
[1] = biological target: T1, C. elegans Hsp90 (CeHsp90), full-length (C. elegans, UniProt Q18688 1-702); experiment: cell-based or functional assay
[2] = biological target: T2, CeHsp90-derived MEEVD-containing peptide AEEDASRMEEVD (C. elegans); experiment: cell-based or functional assay
T2 peptide: AEEDASRMEEVD

[3] = biological target: T1, C. elegans Hsp90 (CeHsp90), full-length; experiment: AUC; sedimentation velocity with UV/VIS absorbance optics (OD280); PPH-5 titrated to a constant concentration of CeHsp90 (4 μM) or CeHsp90-MC (3.5 μM); global fit to sequential binding of a first and second PPH-5; conditions: both partners purified

B1: protein phosphatase 5 from C. elegans (PPH-5) (enzyme, UniProt Q9NES8 1-496, looked up)
chain: MAATITDDIVATVLESIEEKSYEDEKEKAGMIKDEANQFFKDQVYDVAADLYSVAIEIHPTAVLYGNRAQAYLKKELYGSALEDADNAIAIDPSYVKGFYRRATANMALGRFKKALTDYQAVVKVCPNDKDARAKFDECSKIVRRQKFEAAISTDHDKKTVAETLDINAMAIEDSYDGPRLEDKITKEFVLQLIKTFKNQQKLHKKYAFKMLLEFYNYVKSLPTMVEITVPTGKKFTICGDVHGQFYDLCNIFEINGYPSETNPYLFNGDFVDRGSFSVETIFTMIGFKLLYPNHFFMSRGNHESDVMNKMYGFEGEVKAKYTQQMCDMFTETFCWLPLCHLINEKIFVCHGGLFKEDGVTLEDIRKTDRNRQPPDEGIMCDLLWSDPQPINGRSPSKRGVGCQFGPDVTSKWCETNGIEYVVRSHEVKPEGYEMHHNGQCFTVFSAPNYCDQMNNKGAFITITGDNLTPRFTPFDAVPHPKLPPMAYANSLFGFN
notes: protein phosphatase 5 (PPH-5) of C. elegans; also called the phosphatase; source: E. coli BL21-CodonPlus(DE3)-RIL, purified (Ni-NTA, Resource Q, gel filtration); not shown: His6, N-terminal, kept
kcat of PPH-5 towards the model peptide KRpTIRR (50 μM) with 3 μM CeHsp90 [1]: 0.133 s⁻¹ | pNPP turnover by PPH-5 in presence of 60 μM peptide … [2]: ~6 fold | Kd [3]: ~1000 nM and 1000 to 3000 nM | stoichiometry N [3]: 2 PPH-5 per CeHsp90 dimer
